Source: publication PMC6192639, “Generation and characterization of monoclonal antibodies that recognize human and murine supervillin protein isoforms” (PLoS ONE, 2018)
Where a chain is given by its changes, count along the chain named.

T1: h340 linear peptide IENQRRGQELSATRQ (Homo sapiens)
T1 construct: 15-residue peptide of human supervillin h340; numbers count on: hSV1; spot on a peptide microarray; source: printed peptide microarray (PEPperPRINT)
T1 chain: IENQRRGQELSATRQ

T2: h340 linear peptide ELSATRQAHDLSPAA (Homo sapiens)
T2 construct: 15-residue peptide of human supervillin h340; numbers count on: hSV1; spot on a peptide microarray; source: printed peptide microarray (PEPperPRINT)
T2 chain: ELSATRQAHDLSPAA

B1: murine monoclonal antibody clone 2G3 (hybridoma supernatant) (antibody, V domains shown)
VH: QIQLQQSGPELVKPGASVKISCKASAYTFTDYYINWVKQRPGQGLEWIGWIYPGSGNTKYNEKFKGKATLTVDTSSSTAYMQLSSLTSEDSAVYFCATGPFGGFAYWGQGTLVTVSA
VL: DIVMTQAAPSVPVTPGESVSISCRSSKSLLHSNGNTYLYWFLQRPGQSPQLLIYRMSNLASGVPDRFSGSGSGTAFALRISRVEAEDVGVYYCMQHLEYPLTFDAGTRLELK
notes: HC variable region of clone 2G3, partial CDS; mouse IgG1 heavy chain constant region (isotype IgG1 by isotyping kit); LC variable region of clone 2G3, partial CDS; mouse light chain constant region; mouse IgG1; Group 1; source: mouse hybridoma supernatant (Precision Antibody, Inc.)
B2: chimeric (rabbit Fc) monoclonal antibody 4A8 (CPTC-SVIL-2) (antibody, V domains shown)
VH: EVQLQQSGAELVRPGASVKLSCTASGFNIKDDHMHWVKQRPEQGLEWIGWIDPENGDTEYASKFQDKATITADTSSNTAYLQFSSLTSEDTAVYYCTTGEFDNWGQGTTLTVSS
VL: B1 VL with V11I, E17Q, G73A, A77T, L101F, T102S, D104G, R108K
notes: HC variable region of clone 4A8 (as the heavy chain variable region of m7), partial CDS; LC variable region of clone 4A8 (as the light chain variable region of m7), partial CDS; mouse variable regions on rabbit IgG and rabbit kappa constant regions; Group 2; also called Rb 4A8; chimeric rabbit 4A8; source: HEK293, transient production, purified (protein A)
B3: chimeric (rabbit Fc) monoclonal antibody 1E2 (CPTC-SVIL-1) (antibody, V domains shown)
VH: B1 VH with E10D, A26G, Y60F, K63R, G66D, T98S, Y106H
VL: B1 VL with H31Y, A77T, R79K, D104G, R108K
notes: HC variable region of clone 1E2 (as the heavy chain variable region of m4), partial CDS; LC variable region of clone 1E2 (as the light chain variable region of m4), partial CDS; mouse variable regions on rabbit IgG and rabbit kappa constant regions; Group 1; also called Rb 1E2; chimeric rabbit 1E2; source: HEK293, transient production, purified (protein A)

Assays:
[1] = molecular target: T1, h340 linear peptide IENQRRGQELSATRQ; test: peptide or protein array; PEPperPRINT microarray of linear 15-residue h340 peptides (overlap 13), hybridoma supernatants diluted 1:10 and 1:1, 16 h at 4 C, anti-mouse IgG DyLight680; conditions: one partner purified
[2] = molecular target: T2, h340 linear peptide ELSATRQAHDLSPAA; test: as above; conditions: one partner purified
[3] = molecular target: T3, endogenous human supervillin splice-form 4 (SV4) (human (endogenous in U2OS)); test: immunoblot; cell extracts (HeLa; U2OS with control or SVIL-specific dsRNA; mouse embryonic fibroblasts) on 5-15% SDS gels, nitrocellulose strips probed with hybridoma supernatants diluted 1:500; conditions: partners not purified
T3 construct: also called hSV4; source: endogenous, U2OS lysate

[4] = molecular target: T4, EGFP-tagged human supervillin splice-form 4 (EGFP-hSV4) (Homo sapiens, UniProt O95425-4, strain); test: immunostaining of cells or tissue; immunofluorescence, cells fixed with cold methanol; purified antibody 100 ug/ml; overexpressed tagged supervillins in RH30 cells; conditions: one partner purified
T4 construct: source: RH30 cells, transfected, fixed

[5] = molecular target: T5, human supervillin N-terminus, first 340 amino acids (h340) (Homo sapiens, UniProt O95425-2); test: BLI; Octet RED96e, 30 C, PBS-T; by the methods antibody coupled to AR2G sensors and h340 at about 2, 4, 8 and 16 nM, by the legend of Fig 3 surface-bound h340 and antibody in solution; 2:1 interaction model, global fit; KD as off-rate/on-rate; conditions: both partners purified
T5 construct: supervillin, human, first 340 amino acids of splice-form 1 (SV1); numbers count on: hSV1 (the ~205-kDa splice-form, not archvillin); also called h340 immunogen; h340 antigen; source: E. coli Rosetta2(DE3)pLysS, purified (glutathione-Sepharose 4B), cleaved from GST-h340 with PreScission Protease

[6] = molecular target: T6, Flag-tagged human supervillin splice-form 4 (Flag-hSV4) (Homo sapiens, UniProt O95425-4, strain); test: immunostaining of cells or tissue; immunofluorescence, cells fixed with 4% PFA (in CSK buffer, CSK-PFA), Triton X-100; purified antibody 100 ug/ml; overexpressed tagged supervillins in RH30 cells, or endogenous supervillin in U2OS cells on fibronectin; conditions: one partner purified
T6 construct: source: RH30 cells, transfected, fixed
T6 sequence (O95425 whole entry, looked up, stated change not applied, canonical isoform): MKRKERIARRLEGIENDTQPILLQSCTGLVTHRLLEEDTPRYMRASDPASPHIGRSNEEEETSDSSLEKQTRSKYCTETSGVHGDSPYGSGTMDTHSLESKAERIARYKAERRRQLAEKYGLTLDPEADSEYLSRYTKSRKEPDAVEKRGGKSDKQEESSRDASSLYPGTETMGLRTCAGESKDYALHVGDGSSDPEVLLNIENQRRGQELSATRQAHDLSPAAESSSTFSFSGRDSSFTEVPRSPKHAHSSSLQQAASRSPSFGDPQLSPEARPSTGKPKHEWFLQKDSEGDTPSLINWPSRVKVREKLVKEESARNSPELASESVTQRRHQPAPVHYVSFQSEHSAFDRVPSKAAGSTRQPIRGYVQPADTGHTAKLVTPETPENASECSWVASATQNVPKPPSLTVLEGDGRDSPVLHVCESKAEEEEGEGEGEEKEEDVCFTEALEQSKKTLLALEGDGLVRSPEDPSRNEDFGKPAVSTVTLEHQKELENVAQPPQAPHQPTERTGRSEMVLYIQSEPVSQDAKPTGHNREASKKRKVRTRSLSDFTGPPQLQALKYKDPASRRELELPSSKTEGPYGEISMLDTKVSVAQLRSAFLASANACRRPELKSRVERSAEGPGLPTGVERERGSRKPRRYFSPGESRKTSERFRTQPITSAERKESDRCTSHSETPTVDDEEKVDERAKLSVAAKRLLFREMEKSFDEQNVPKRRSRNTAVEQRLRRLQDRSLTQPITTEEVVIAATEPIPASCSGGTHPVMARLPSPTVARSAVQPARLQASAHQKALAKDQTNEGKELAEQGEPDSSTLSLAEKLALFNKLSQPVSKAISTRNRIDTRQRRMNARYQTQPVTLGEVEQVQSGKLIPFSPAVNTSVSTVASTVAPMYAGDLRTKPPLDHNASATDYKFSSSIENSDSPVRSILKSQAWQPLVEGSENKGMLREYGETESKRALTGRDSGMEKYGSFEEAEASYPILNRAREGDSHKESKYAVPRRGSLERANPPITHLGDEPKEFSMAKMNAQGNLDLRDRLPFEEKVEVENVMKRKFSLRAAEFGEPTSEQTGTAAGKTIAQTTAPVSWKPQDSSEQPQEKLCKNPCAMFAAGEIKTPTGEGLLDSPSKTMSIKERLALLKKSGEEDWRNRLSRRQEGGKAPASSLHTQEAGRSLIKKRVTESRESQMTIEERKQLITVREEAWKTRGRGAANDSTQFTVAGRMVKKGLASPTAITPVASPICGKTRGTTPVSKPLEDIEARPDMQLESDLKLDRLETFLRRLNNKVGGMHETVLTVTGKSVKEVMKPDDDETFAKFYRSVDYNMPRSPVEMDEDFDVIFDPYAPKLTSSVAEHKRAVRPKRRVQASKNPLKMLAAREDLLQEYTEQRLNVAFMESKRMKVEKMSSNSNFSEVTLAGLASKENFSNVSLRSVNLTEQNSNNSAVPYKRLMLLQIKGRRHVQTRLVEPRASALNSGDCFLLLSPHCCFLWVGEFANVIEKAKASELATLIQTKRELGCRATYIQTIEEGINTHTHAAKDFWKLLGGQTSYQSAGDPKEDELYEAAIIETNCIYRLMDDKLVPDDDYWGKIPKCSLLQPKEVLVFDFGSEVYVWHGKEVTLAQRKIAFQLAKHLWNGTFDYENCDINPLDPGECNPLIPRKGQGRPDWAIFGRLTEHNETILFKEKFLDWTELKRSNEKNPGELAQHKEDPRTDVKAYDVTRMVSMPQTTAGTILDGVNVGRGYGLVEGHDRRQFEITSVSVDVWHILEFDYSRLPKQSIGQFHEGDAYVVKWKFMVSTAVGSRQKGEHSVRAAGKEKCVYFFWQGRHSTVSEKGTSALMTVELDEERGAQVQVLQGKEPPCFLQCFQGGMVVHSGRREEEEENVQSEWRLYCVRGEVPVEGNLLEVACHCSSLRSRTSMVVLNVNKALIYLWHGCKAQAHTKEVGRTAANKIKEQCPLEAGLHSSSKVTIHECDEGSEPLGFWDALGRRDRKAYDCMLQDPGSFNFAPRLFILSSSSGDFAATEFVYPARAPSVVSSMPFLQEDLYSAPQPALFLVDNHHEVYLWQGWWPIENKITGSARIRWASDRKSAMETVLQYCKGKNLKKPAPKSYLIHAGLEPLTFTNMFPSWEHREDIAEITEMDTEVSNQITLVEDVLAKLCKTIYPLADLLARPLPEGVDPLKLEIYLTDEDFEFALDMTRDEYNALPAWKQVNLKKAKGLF

T5 sequence (O95425 other isoform, or with tags, fused parts or gaps): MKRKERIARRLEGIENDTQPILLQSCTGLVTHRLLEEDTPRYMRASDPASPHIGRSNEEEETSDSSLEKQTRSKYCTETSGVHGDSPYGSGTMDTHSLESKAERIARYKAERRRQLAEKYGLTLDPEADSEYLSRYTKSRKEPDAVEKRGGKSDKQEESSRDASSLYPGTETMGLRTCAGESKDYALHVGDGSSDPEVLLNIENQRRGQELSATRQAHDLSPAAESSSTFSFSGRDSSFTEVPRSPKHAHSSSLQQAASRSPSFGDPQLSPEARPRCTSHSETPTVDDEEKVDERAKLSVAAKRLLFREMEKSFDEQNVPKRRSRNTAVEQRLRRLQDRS
T4 sequence (O95425 whole entry, looked up, stated change not applied, canonical isoform): as the sequence (O95425 whole entry, looked up, stated change not applied, canonical isoform) above

Binder	binding result [1]	binding result [2]	binding result [3]	binding result [4]	Kd [5] [nM]	koff [5] [s⁻¹]	kon [5] [M⁻¹ s⁻¹]	binding result [6]
B1	binds	binds	binds					
B2				binds	0.73	0.000296	407000	
B3					4.21	0.000496	118000	binds
